Reference: patent US20250339569A1 (3B PHARMACEUTICALS, published 2025)
Starred links: 1 amine or outer side, 2 acyl side, 3 side chain; linkers in the order of their positions; H or OH if unused. Positions of bridges follow the written chain, without caps; N, C: chain ends. Non-standard residues stand in square brackets, D forms with d. Primed or numbered codes have the meaning given here. No end group written: not given here. *: point of attachment. Aph(SaPr) = 4-amino-L-phenylalanine, ring amine acylated by 3-sulfamoylpropanoic acid, NS(=O)(=O)CCC(=O)Nc1ccc(C[C@H](N[*:1])C(=O)[*:2])cc1; Ttds(4) = 1,13-diamino-4,7,10-trioxatridecan-succinamic acid spacer, O=C(CCC(=O)[*:2])NCCCOCCOCCOCCCN[*:1]; Ttds = 1,13-diamino-4,7,10-trioxatridecan-succinamic acid spacer, NCCCOCCOCCOCCCNC(=O)CCC(=O)*; Phe(3-NHCO(CH2)3SO2NH2) = N[C@@H](Cc1cccc(NC(=O)CCCS(N)(=O)=O)c1)C(=O)O; APAc″ = 2-(4-(amino)piperidin-1-yl)acetic acid, NC1CCN(CC(=O)*)CC1; DOTA = O=C(O)CN1CCN(CC(=O)O)CCN(CC(=O)*)CCN(CC(=O)O)CC1; PPAc = 4-carboxymethyl piperazine linker; mXylylene = c1cc(C[*:1])cc(C[*:2])c1; tBuAla = CC(C)(C)C[C@H](N)C(=O)O; Pen = CC(C)(S)[C@H](N)C(=O)O; Tle = CC(C)(C)[C@H](N)C(=O)O; 3Amb = NCc1cccc(C(=O)O)c1; PPAc″ = not defined here; Cmp = not defined here; Dap = NC[C@H](N)C(=O)O; Rni = not defined here

Legend:
[1] = target: T1, Fc-fusion protein of human carbonic anhydrase IX (human, UniProt Q16790 38-414); assay: SPR, captured hCAIX-Fc; pKD category A: >8.0
[2] = target: T1, Fc-fusion protein of human carbonic …; assay: SPR, captured hCAIX-Fc; t1/2 category D: <=2.0 min
Experimental: Stock solutions of test compounds were prepared by dissolving each compound in DMSO. DMSO stock solution were diluted 1:1000 in Running Buffer without DMSO. […] SPR binding analyses were performed in Single Cycle Kinetic (SCK) mode at 25° C.
For each test compound, SPR raw data in the form of resonance units (RU) were plotted as sensorgrams using the Biacore™ T200 control software. The signal from the blank sensorgram was subtracted from that of the test compound sensorgram (blank corrected). The blank corrected sensorgram was corrected for baseline drift by subtracting the sensorgram of a SCK run without the test compound (running buffer only). […] Raw data and fit results were imported as text files in IDBS. The pKD value (negative decadic logarithm of dissociation constant) was calculated in the IDBS excel template.

[3] = target: human carbonic anhydrase 9 (CAIX) (human, UniProt Q16790 38-459); assay: FACS competition on HT-29 cells against tracer 3BP-2776; pIC50 category B = pIC50 7.1-8.0
Experimental: (§1) CAIX-expressing human HT-29 colorectal cancer cells (DSMZ, RRID: CVCL_0320) were cultured in McCoys's 5A modified medium (Biochrom, #F1015) including 10% fetal calf serum (FCS), 2 mM L-glutamine, 100 U/ml penicillin and 100 μg/mL streptomycin. Cells were detached with Accutase (Biolegend, #423201) and washed in FACS buffer (PBS including 1% FCS). Cells were diluted in FACS buffer to a final concentration of 500.000 cells per ml. 200 μL of the cell suspension were transferred to a u-shaped non-binding 96-well plate (Greiner) and cells were washed in ice-cold FACS buffer.
(§2) When biotinylated compounds were used an additional incubation step with 1 μg/mL APC-Streptavidin (Miltenyi; #130-106-791) in 50 μL FACS buffer for 30 minutes on ice was performed.
(§3) Cells were washed twice with ice-cold FACS buffer and analyzed in an Attune NxT flow cytometer (Thermo Fisher). Median fluorescence intensities (MFI) of the APC/Cy5-channel were calculated by Attune NxT software.

[4] = target: human carbonic anhydrase IX (CAIX) (human, UniProt Q16790 38-459); assay: FACS competition, HT-29 cells, tracer 3BP-2776; pIC50 category A: >8.0
Experimental: as §1, §2, §3

[5] = target: T1, Fc-fusion protein of human carbonic …; assay: SPR, captured hCAIX-Fc; t1/2 category A: >15.0 min
[6] = target: human carbonic anhydrase 9 (CAIX) (human, UniProt Q16790 38-459); assay: FACS competition on HT-29 cells, competitor tracer 3BP-2776; category C = pIC50 6.1-7.0
Experimental: as §1, §2, §3

| pKD [1] [pkd] | t1/2 (half-life of the complex, SPR) [2] [min] | pIC50 [4] [pic50] | Binder | other results |
| --- | --- | --- | --- | --- |
| – | – | > 8 | {DOTA-PPAc″}-YCE[dP]D[Phe(3-NHCO(CH2)3SO2NH2)][tBuAla]TWSC-NH2 (linker 2-11 via mXylylene; reading uncertain) [3BP-4449] | – |
| > 8 | – | > 8 | {DOTA-PPAc″}-YCE[dP]D[Phe(3-NHCO(CH2)3SO2NH2)]LTWSC-NH2 (linker 2-11 via mXylylene; reading uncertain) [3BP-4448] | t1/2 (half-life of the complex, SPR) [5]: > 15 min |
| > 8 | – | > 8 | {DOTA-Rni}-YCE[dP]D[Phe(3-NHCO(CH2)3SO2NH2)]LTWSC-NH2 (linker 2-11 via mXylylene; reading uncertain) [3BP-4455] | t1/2 (half-life of the complex, SPR) [5]: > 15 min |
| – | – | > 8 | {DOTA-PPAc″}-RCE[dP]D[Phe(3-NHCO(CH2)3SO2NH2)]LTWSC-NH2 (linker 2-11 via mXylylene; reading uncertain) [3BP-4451] | – |
| – | – | > 8 | {DOTA-PPAc″}-SCE[dP]D[Phe(3-NHCO(CH2)3SO2NH2)]LTWSC-NH2 (linker 2-11 via mXylylene; reading uncertain) [3BP-4450] | – |
| > 8 | – | > 8 | {DOTA-PPAc}-ECE[dP]D[Phe(3-NHCO(CH2)3SO2NH2)]LTW[Dap]C-NH2 (lactam 1-10; linker 2-11 via mXylylene) [3BP-4502] | t1/2 (half-life of the complex, SPR) [5]: > 15 min |
| > 8 | – | > 8 | {DOTA-PPAc}-ECE[dP]D[Aph(SaPr)]LTW[Dap]C-NH2 (lactam 1-10; linker 2-11 via mXylylene) [3BP-4504] | t1/2 (half-life of the complex, SPR) [5]: > 15 min |
| > 8 | – | > 8 | {DOTA}-ECE[dP]D[Aph(SaPr)]LTW[Dap]C-NH2 (lactam 1-10; linker 2-11 via mXylylene; SMILES CC(C)C[C@@H]1NC(=O)[C@H](Cc2ccc(NC(=O)CCS(N)(=O)=O)cc2)NC(=O)[C@H](CC(=O)O)NC(=O)[C@H]2CCCN2C(=O)[C@H](CCC(=O)O)NC(=O)[C@@H]2CSCc3cccc(c3)CSC[C@@H](C(N)=O)NC(=O)[C@H](CNC(=O)CC[C@H](NC(=O)CN3CCN(CC(=O)O)CCN(CC(=O)O)CCN(CC(=O)O)CC3)C(=O)N2)NC(=O)[C@H](Cc2c[nH]c3ccccc23)NC(=O)[C@H]([C@@H](C)O)NC1=O) [3BP-4505] | t1/2 (half-life of the complex, SPR) [5]: > 15 min |

Second part, the binder before the results:

| Binder | pKD [1] [pkd] | t1/2 (half-life of the complex, SPR) [2] [min] | pIC50 [4] [pic50] | other results |
| --- | --- | --- | --- | --- |
| {DOTA-APAc″}-CE[dP]DWLTWSC-NH2 (linker 1-10 via mXylylene) [3BP-3858] | > 8 | ≤ 2 | – | – |
| {DOTA-Cmp}-DCE[dP]DWLTW[Dap]C-NH2 (lactam 10-1; linker 2-11 via mXylylene; reading uncertain) [3BP-4259] | > 8 | ≤ 2 | – | – |
| Ac-VY[Pen]EGDWLTWQC-NH2 (linker 3-12 via mXylylene; SMILES CC(=O)N[C@H](C(=O)N[C@@H](Cc1ccc(O)cc1)C(=O)N[C@@H]1C(=O)N[C@@H](CCC(=O)O)C(=O)NCC(=O)N[C@@H](CC(=O)O)C(=O)N[C@@H](Cc2c[nH]c3ccccc23)C(=O)N[C@@H](CC(C)C)C(=O)N[C@@H]([C@@H](C)O)C(=O)N[C@@H](Cc2c[nH]c3ccccc23)C(=O)N[C@@H](CCC(N)=O)C(=O)N[C@H](C(N)=O)CSCc2cccc(c2)CSC1(C)C)C(C)C) [3BP-3063] | – | – | – | pIC50 [3]: 7.1 to 8 pic50 |
| {DOTA-Ttds}-VYCEGDWLTWQC-NH2 (linker 3-12 via mXylylene) [3BP-2959] | > 8 | ≤ 2 | – | – |
| Ac-VYCE[dP]DWLKWSC-NH2 (linker 3-12 via mXylylene; lactam 4-9; SMILES CC(=O)N[C@H](C(=O)N[C@@H](Cc1ccc(O)cc1)C(=O)N[C@H]1CSCc2cccc(c2)CSC[C@@H](C(N)=O)NC(=O)[C@H](CO)NC(=O)[C@H](Cc2c[nH]c3ccccc23)NC(=O)[C@@H]2CCCCNC(=O)CC[C@H](NC1=O)C(=O)N1CCC[C@@H]1C(=O)N[C@@H](CC(=O)O)C(=O)N[C@@H](Cc1c[nH]c3ccccc13)C(=O)N[C@@H](CC(C)C)C(=O)N2)C(C)C) [3BP-3899] | – | – | – | pIC50 [6]: 6.1 to 7 pic50 |
| {DOTA-3Amb}-DCE[dP]DWLTW[Dap]C-NH2 (lactam 10-1; linker 2-11 via mXylylene; SMILES CC(C)C[C@@H]1NC(=O)[C@H](Cc2c[nH]c3ccccc23)NC(=O)[C@H](CC(=O)O)NC(=O)[C@H]2CCCN2C(=O)[C@H](CCC(=O)O)NC(=O)[C@@H]2CSCc3cccc(c3)CSC[C@@H](C(N)=O)NC(=O)[C@H](CNC(=O)C[C@H](NC(=O)c3cccc(CNC(=O)CN4CCN(CC(=O)O)CCN(CC(=O)O)CCN(CC(=O)O)CC4)c3)C(=O)N2)NC(=O)[C@H](Cc2c[nH]c3ccccc23)NC(=O)[C@H]([C@@H](C)O)NC1=O) [3BP-4260] | > 8 | ≤ 2 | – | – |
| Ac-[dV]YCEGDWLTWQC-NH2 (linker 3-12 via mXylylene; SMILES CC(=O)N[C@@H](C(=O)N[C@@H](Cc1ccc(O)cc1)C(=O)N[C@H]1CSCc2cccc(c2)CSC[C@@H](C(N)=O)NC(=O)[C@H](CCC(N)=O)NC(=O)[C@H](Cc2c[nH]c3ccccc23)NC(=O)[C@H]([C@@H](C)O)NC(=O)[C@H](CC(C)C)NC(=O)[C@H](Cc2c[nH]c3ccccc23)NC(=O)[C@H](CC(=O)O)NC(=O)CNC(=O)[C@H](CCC(=O)O)NC1=O)C(C)C) [3BP-3043] | – | – | – | pIC50 [3]: 7.1 to 8 pic50 |
| Ac-VYCEGDW[Tle]TWQC-NH2 (linker 3-12 via mXylylene; SMILES CC(=O)N[C@H](C(=O)N[C@@H](Cc1ccc(O)cc1)C(=O)N[C@H]1CSCc2cccc(c2)CSC[C@@H](C(N)=O)NC(=O)[C@H](CCC(N)=O)NC(=O)[C@H](Cc2c[nH]c3ccccc23)NC(=O)[C@H]([C@@H](C)O)NC(=O)[C@H](C(C)(C)C)NC(=O)[C@H](Cc2c[nH]c3ccccc23)NC(=O)[C@H](CC(=O)O)NC(=O)CNC(=O)[C@H](CCC(=O)O)NC1=O)C(C)C, also called Ac-Val-Tyr-[Cys(3MeBn)-Glu-Gly-Asp-Trp-Tle-Thr-Trp-Gln-Cys]-NH2) [3BP-3066] | – | – | – | pIC50 [3]: 7.1 to 8 pic50 |
| DCE[dP]DWLTW[Dap]C-NH2 (lactam 1-10; linker 2-11 via mXylylene; not fully specified (N-terminus); also: indium complexed by DOTA) [3BP-4338] | > 8 | ≤ 2 | – | – |
| {DOTA-PPAc}-DCE[dP]DWLTW[Dap]C-NH2 (lactam 10-1; linker 2-11 via mXylylene) [3BP-4255] | > 8 | ≤ 2 | – | – |
| Ac-VYCEGDWLTWQC[Ttds(4)][dK](DOTA)-NH2 (linker 3-12 via mXylylene; SMILES CC(=O)N[C@H](C(=O)N[C@@H](Cc1ccc(O)cc1)C(=O)N[C@H]1CSCc2cccc(c2)CSC[C@@H](C(=O)NCCCOCCOCCOCCCNC(=O)CCC(=O)N[C@H](CCCCNC(=O)CN2CCN(CC(=O)O)CCN(CC(=O)O)CCN(CC(=O)O)CC2)C(N)=O)NC(=O)[C@H](CCC(N)=O)NC(=O)[C@H](Cc2c[nH]c3ccccc23)NC(=O)[C@H]([C@@H](C)O)NC(=O)[C@H](CC(C)C)NC(=O)[C@H](Cc2c[nH]c3ccccc23)NC(=O)[C@H](CC(=O)O)NC(=O)CNC(=O)[C@H](CCC(=O)O)NC1=O)C(C)C) [3BP-2949] | – | – | – | pIC50 [3]: 7.1 to 8 pic50 |
